Experimental findings from the supplement of paper PMC9170038 are described below.

The series deals with MS2 coat protein. Put plainly: apparent KD of MS2 coat protein; designed switch direction (-1 OFF switch, 1 ON switch): 1; higher = weaker reporter binding. The essentials:
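Designed RNA switches were transcribed on Illumina chips by stalled E. coli RNA polymerase and titrated with SNAP-549-labelled MS2 coat protein from 0.7 or 1.5 nM, doubling to 3 µM. Step length ran from 0.8–1.5 h at the lowest concentration to 10–20 min at the highest. The apparent KD is the median over clusters for each design, from curve-fitted normalised cluster fluorescence.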

Setting [1] is: input ligand: microRNA oligo, concentration not stated.
The mark [2] stands for this setting: Eterna round: R95, input ligand: FMN 200 uM.
Where [3] appears, read: Eterna round: R95, input ligand: microRNA oligo, concentration not stated.
The mark [4] stands for this setting: Eterna round: R95, input ligand: none.

As for “GUGGUCAGACAUGAGGAUCACCCAUGUGGAAUAAAUAACGAACAGGAUAUUCAAUAUAGGAUAUAGAAGAAGGGUUGAUUGGUG (Eterna round: R96, puzzle: Same State NG 3)”, the “apparent KD of MS2 coat protein” value by setting is: (input ligand: FMN 200 uM) 204 nM; under setting [1], 171 nM; (input ligand: none) 187 nM.
For “AUACCAUCGGGAGGAUAUGGCACCUUAUUGGUGCCAGAAGGUCCAACAUGAGGAUCACCCAUGUGGGAGUGGUCUAAUGACCAC [Fiskers NG1ss - 28] (Eterna round: R96, puzzle: Same State NG 1)” the same measures were 121 nM, 120 nM and 171 nM.
In the case of “ACCUUGUGGGUAGGAUAUUUAGGAUAUGCGGAAGACUAAGUCUGUAGGUCACCUAACGCAGAAGGAGAGAAGGACCCUUCAGCA [pwkr ssNG2 2FMN + F9.31] (Eterna round: R96, puzzle: Same State NG 2)”, the “apparent KD of MS2 coat protein” value (input ligand: FMN 200 uM) is 109 nM, the “apparent KD of MS2 coat protein” value under setting [1] was found to be 3.66 nM and the “apparent KD of MS2 coat protein” value (input ligand: none) amounted to 4.74 nM.
In the case of “AGUCCAGCCUGAGCUGGACAGAAGCAUGUACAUGAGGAUCACCCAUGUUCAUGUACAAGCUUUUUGCUCGUCUUAAA [Zipper 52 - 3] (puzzle: Sensor for hsa-mir-208a)”, the “apparent KD of MS2 coat protein” value by setting is: under setting [2], 480 nM; under setting [3], 14.2 nM; under setting [4], 436 nM.
In the case of “AAUUUAAUACAUGAGGAUCACCCAUGUAAUACUAGUAAGAUCUAGGAUAUCAGCUCGAAUAGAGCUGAGAAGGAGAUCACAUGU [SSNG3/19-C1] (Eterna round: R96, puzzle: Same State NG 3)”, the “apparent KD of MS2 coat protein” value was determined as 24.2 nM (input ligand: FMN 200 uM), 63.9 nM under setting [1] and 82 nM (input ligand: none).
For the sequence “GUGGUCUGACAUGAGGAUCACCCAUGUGGAAUAAAUACGGGUUAGGAUAUCUUGAGGAUCACCCAAGAGAAGGGAUGGAUGGUC (Eterna round: R96, puzzle: Same State NG 3)”, under setting [1], the “apparent KD of MS2 coat protein” value came to 71 nM.
In the case of “CGCCAGAGAACAGGAUAUGGGCCGCAGCCUAUGGGCCGCGAACUCACAUGAGGAUCACCCAUGUCCCAGAAGGGUUCCUGGCUG [Tiusonon] (Eterna round: R96, puzzle: Same State NG 2)”, the “apparent KD of MS2 coat protein” value reads like this: (input ligand: FMN 200 uM) 154 nM; under setting [1], 596 nM; (input ligand: none) 2070 nM.
As to “AGUCCUGAAAAGAAAAUACAGAGAUAUGUACAUGAGGAUCACCCAUGUCAUGUACAAGUUCUAUGCUCGUCAUAUAA [Sensorship 21 - Jieux - Sensor for hsa-mir-208a] (puzzle: Sensor for hsa-mir-208a)”, the “apparent KD of MS2 coat protein” value runs as follows: under setting [2], 202 nM; under setting [3], 63.6 nM; under setting [4], 262 nM.
With “AUAUGAGAAGCAGGAUAUGUGAAAAAAAAACAUACAGAAGGGUUUAUGGGACAACAUGAGGAUCACCCAUGUUCUCUGUGAUGA [AK SSNG1-V2-1.1] (Eterna round: R96, puzzle: Same State NG 1)”, under setting [1], the “apparent KD of MS2 coat protein” value was found to be 59.2 nM.
On the same count and under the same terms, as for “UGUUAGUAGACAGGAUAUUGAAUGUUAAGUAUUAACAUGAGGAUCACCCAUGUAUUUGAUUGGUACAAGAAGGGUCAUGUUUGU [JR_SSNG2_Sub014] (Eterna round: R96, puzzle: Same State NG 2)”, the figure is 290 nM.
As to “AAUCGUUUGAUAGGAUAUCGCUAUACAUGAGGAUCACCCAUGUUUACCACGCUGGUUUUUCAUACCGAGAAGGAUUCUGAUGAG [salish99_SSNG02_r04_001] (Eterna round: R96, puzzle: Same State NG 2)”, the “apparent KD of MS2 coat protein” value came out at 72.1 nM (input ligand: FMN 200 uM), 45.7 nM under setting [1] and 53.4 nM (input ligand: none).
The matching figures for “CUCCAUUGGGUAGGAUAUCUAGGAUAUGGGAAAGACUAAGUCUGUAGGUCACCUAACCCAGAUGGAGAGAAGGACCCAACACUC [pwkr ssNG2 2FMN + F9.40] (Eterna round: R96, puzzle: Same State NG 2)”: 15.1 nM, 15.2 nM and 23.2 nM.
The matching figures for “AAUUGUUCCUGAGGAUAUCAGUAGUUUGCUCUUUGAGAAGGCAGUACAUGAGGAUCACCCAUGUUGUGGUUUGAUAGAAUGAUA [JR_SSNG1_Sub006] (Eterna round: R96, puzzle: Same State NG 1)”: 131 nM, 103 nM and 137 nM.
In the case of “AAGUAGGAGUUACAGGAUAUAUGGAGAAGGACAUGAGGAUCACCCAUGUGAGAGAUGAGAGGAAGAUAGAAGGGUAAGGGAGUAA [JR_SS2_Sub026] (puzzle: Same State 2)”, the “apparent KD of MS2 coat protein” value under setting [2] amounted to 44 nM, the “apparent KD of MS2 coat protein” value under setting [3] is 41.4 nM and the “apparent KD of MS2 coat protein” value under setting [4] is 77.2 nM.
For the sequence “UCGGGCUCUGCUCGUCUUGAGUUGCUCCCACAUGAGGAUCACCCAUGUAGUGUGCCGAUCGGCGCGCGGGUGACUUU [Atresoso] (puzzle: Sensor for hsa-mir-208a)”, the “apparent KD of MS2 coat protein” value under setting [2] was found to be 456 nM, the “apparent KD of MS2 coat protein” value under setting [3] is 151 nM and the “apparent KD of MS2 coat protein” value under setting [4] came out at 451 nM.
For “UUUUUUUUACAUGAGGAUCACCCAUGUCGGGCUGUUUGCUUUCAUGUCUUAUUGCAUGCAUGUUUUUCAUGCAUGCU [jnicol vienna2 solution] (puzzle: Sensor for hsa-mir-208a version 2)” the same measures were 97.7 nM, 129 nM and 145 nM.
Consider “UUAAUGAUGAUAGGAUAUACAUGAGGAAUUCUCGUAGAAGGAUCAUGACAUGAGGAUCACCCAUGUAUCGCUCAGAAGAGCGUA [Mat - Same State NG 1 - JL mod - D32] (Eterna round: R96, puzzle: Same State NG 1)”, for which the “apparent KD of MS2 coat protein” value was determined as 1340 nM (input ligand: FMN 200 uM), 368 nM under setting [1] and 528 nM (input ligand: none).
As to “AAAGGCAUGGCACAGGAUAUGCAAUAAAAGACAUGAGGAUCACCCAUGUACCCGAGAAACGGGCAGCAGAAGGGUGUAAAAGAAA [Orrere] (puzzle: Same State 2)”, the “apparent KD of MS2 coat protein” value is 134 nM under setting [2], 115 nM under setting [3] and 447 nM under setting [4].
Consider “GCUUGCGACGCAGGAUAUGGGUGCCUGUACAUGAGGAUCACCCAUGUUAAGGAACGGAUUACGUCUCAGAAGGGCGUGGCAGGC [Ceerce Mod] (Eterna round: R96, puzzle: Same State NG 2)”, for which the “apparent KD of MS2 coat protein” value is, setting by setting: (input ligand: FMN 200 uM) 37.1 nM; under setting [1], 31.1 nM; (input ligand: none) 1250 nM.
Consider “AGUCCAGCGAAAGCUGGACAAGAGCAUGUACAUGAGGAUCACCCAUGUUCAUGUACAAGCUUUUUGCUCGUCUUAAA [JL mod - D95 - 2] (puzzle: Sensor for hsa-mir-208a)”, for which the “apparent KD of MS2 coat protein” value under setting [2] was 384 nM, the “apparent KD of MS2 coat protein” value under setting [3] was 14.3 nM and the “apparent KD of MS2 coat protein” value under setting [4] is 439 nM.
For “UUUAUAUUCAGAGGAUAUUAAUGUAGUAUAAUAUAAGAAGGCUGUUUGUUUUGUAAAGUUAUUAUACAUGAGGAUCACCCAUGU [JR_SSNG1_Sub083] (Eterna round: R96, puzzle: Same State NG 1)”, the “apparent KD of MS2 coat protein” value under setting [1] was 13.5 nM.
